How the values were obtained:
[1] = molecular target: T1, HLA-A*02:01 (Homo sapiens, UniProt P04439, D140Y/D185E/D98H/E176V/E277Q/G131W/G231S/I119V/I121R/I166T/I218V/L300P/L318F/N151K/N90K/P208A/P217A/Q86G/Q94H/R138H/R169H/T345S); type: cell-based
[2] = molecular target: T1, HLA-A*02:01; assay: QuickSwitch Quant HLA-A*02:01 Tetramer control peptide exchange
[3] = system: CD8+ T cells; type: cell-based, human; parameters: key: y = yes; TBD = to be determined
[4] = molecular target: HLA-B*57:01 (Homo sapiens, UniProt P01889, D201E/D98Y/E176V/E187L/E204Q/E69M/E70A/G107R/I90N/K202T/L105A/L119I/N104I/N87E/Q89R/Q94S/R106L/R155S/R180L/R86G/S101N/S121V/S35A/S48A/T118I/V36M/Y140S/Y91M); assay: Random 9-mer EpiScan screen in HLA-B57-expressing EpiScan cells with and without abacavir; type: cell-based; conditions: 48 h abacavir treatment at 6 μM
[5] = cited from earlier work

Compound: VMVELVAEL [SARS-CoV-2 HLA-A*02:01 peptide used for tetramer staining]
- EpiScan MFI [1]: 5.338
- % Peptide Exchange [2]: 98.63%
- Patient tetramer positivity? [3]: y

Compound: VMAYITGGV
- EpiScan MFI [1]: 4.528
- % Peptide Exchange [2]: 99.07%

Compound: Nc1nc(NC2CC2)c2ncn([C@H]3C=C[C@@H](CO)C3)c2n1 [Abacavir]
- binding peptides with C-terminal Residue C, Abacavir treated [4]: 3
- binding peptides with C-terminal Residue F, Abacavir treated [4]: 66
- binding peptides with C-terminal Residue G, Abacavir treated [4]: 4
- binding peptides with C-terminal Residue I, Abacavir treated [4]: 59
- binding peptides with C-terminal Residue L, Abacavir treated [4]: 10
- binding peptides with C-terminal Residue M, Abacavir treated [4]: 5
- binding peptides with C-terminal Residue N, Abacavir treated [4]: 1
- binding peptides with C-terminal Residue R, Abacavir treated [4]: 3
- binding peptides with C-terminal Residue V, Abacavir treated [4]: 28
- binding peptides with C-terminal Residue W, Abacavir treated [4]: 502
- binding peptides with C-terminal Residue Y, Abacavir treated [4]: 22
- hypersensitivity, share of patients [5]: around 5%

Compound: VLYQDVNCTEV
- EpiScan MFI [1]: 5.598
- % Peptide Exchange [2]: 97.92%

Compound: SLPGVFCGV [SARS-CoV-2 HLA-A*02:01 peptide used for tetramer staining]
- EpiScan MFI [1]: 6.418
- % Peptide Exchange [2]: 98.00%
- Patient tetramer positivity? [3]: y

Compound: VMAYITGGVV [SARS-CoV-2 HLA-A*02:01 peptide used for tetramer staining]
- EpiScan MFI [1]: 4.641
- % Peptide Exchange [2]: 99.07%
- Patient tetramer positivity? [3]: y

Compound: TLATHGLAAV
- EpiScan MFI [1]: 4.040
- % Peptide Exchange [2]: 97.98%

Compound: AMDEFIERYKL
- EpiScan MFI [1]: 2.352
- % Peptide Exchange [2]: 96.89%

Compound: YIDIGNYTV
- EpiScan MFI [1]: 4.421
- % Peptide Exchange [2]: 97.94%
